Patent US20160319034A1 (ONCOMED PHARMACEUTICALS, published 2016)
Substitutions are numbered along the chain they refer to. Values belong to the molecule of their own block, whether it stands above or below them.

Key:
[1] = molecular target: full-length human MET (FL-MET) on cells (human) (UniProt P08581); experiment: FACS: inhibition of biotin-HGF binding to MET-transfected HEK-293T cells, agent at 0.16 µg/ml
[2] = molecular target: full-length human MET (FL-MET) on cells (human) (UniProt P08581); experiment: FACS: inhibition of biotin-HGF binding to MET-transfected HEK-293T cells, agent at 10 µg/ml
[3] = molecular target: full-length human MET (FL-MET) on cells (human) (UniProt P08581); experiment: FACS blocking assay on MET-transfected HEK-293T cells; blocked ligand: biotinylated HGF, PE-streptavidin
[4] = molecular target: human MET (soluble analyte in the Biacore assay) (human) (UniProt P08581); experiment: SPR (Biacore 2000): agent captured via goat anti-human antibody, human MET injected
Chain of human MET (soluble analyte in the Biacore assay) (human) (P08581 25-932 limits assumed): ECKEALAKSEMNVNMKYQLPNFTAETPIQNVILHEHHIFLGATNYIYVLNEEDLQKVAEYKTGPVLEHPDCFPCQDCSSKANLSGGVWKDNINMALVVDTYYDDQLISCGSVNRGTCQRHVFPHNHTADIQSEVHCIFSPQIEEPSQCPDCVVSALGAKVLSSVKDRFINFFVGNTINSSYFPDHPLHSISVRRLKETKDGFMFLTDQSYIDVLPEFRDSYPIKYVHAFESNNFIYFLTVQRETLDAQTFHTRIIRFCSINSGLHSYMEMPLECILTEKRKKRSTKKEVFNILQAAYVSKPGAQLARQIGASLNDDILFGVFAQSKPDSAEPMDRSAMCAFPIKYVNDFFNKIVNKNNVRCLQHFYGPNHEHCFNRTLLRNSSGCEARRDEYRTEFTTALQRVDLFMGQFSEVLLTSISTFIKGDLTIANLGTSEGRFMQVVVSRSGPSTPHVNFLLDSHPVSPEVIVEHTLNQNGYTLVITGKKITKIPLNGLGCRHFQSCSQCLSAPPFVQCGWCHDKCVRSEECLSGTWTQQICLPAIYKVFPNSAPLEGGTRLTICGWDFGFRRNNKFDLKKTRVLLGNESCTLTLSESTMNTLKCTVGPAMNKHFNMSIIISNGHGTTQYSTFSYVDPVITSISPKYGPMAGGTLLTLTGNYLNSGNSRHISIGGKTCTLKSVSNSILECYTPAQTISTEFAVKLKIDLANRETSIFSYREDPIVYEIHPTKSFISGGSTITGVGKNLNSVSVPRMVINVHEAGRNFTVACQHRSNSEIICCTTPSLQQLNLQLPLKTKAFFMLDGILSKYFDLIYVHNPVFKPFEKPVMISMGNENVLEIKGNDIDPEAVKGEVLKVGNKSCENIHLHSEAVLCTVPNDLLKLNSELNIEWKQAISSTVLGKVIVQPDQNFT

[5] = molecular target: T1, human MET (soluble analyte in the Biacore assay) (human, UniProt P08581 25-932); experiment: as above
T1 sequence (P08581 25-932 limits assumed): as above
Method: (§1) The KD of monovalent version of anti-MET antibody 73R009, monovalent anti-MET antibody 5D5, and anti-MET/FZD8-Fc bispecific agent 315B06 were determined using a Biacore 2000 system from Biacore Life Sciences (GE Healthcare). A goat anti-human antibody (Invitrogen H10500) was coupled to a carboxymethyl-dextran (CM5) SPR chip using standard amine-based chemistry (NHS/EDC) and blocked with ethanolamine. Antibodies were diluted to a concentration of 10 μg/ml in HBS-P-BSA (0.01M HEPES pH7.4, 0.15M NaCl, 0.005% v/v Polysorbate 20, 10 μg/ml BSA) and captured onto the chip via the anti-human antibody. Human MET was serially diluted 2-fold from 300 nM to 37.5 nM in HBS-P-BSA and injected sequentially over the captured anti-MET antibodies. MET association and dissociation was measured at each concentration. After each antigen injection 5 μl of 100 mM H₃P0₄ was injected to remove the antigen-antibody complex and a subsequent injection performed. Kinetic data were collected over time and were fit using the simultaneous global fit equation to yield affinity constants (KD values) for each agent.
In addition, the bispecific agent 315B06 appeared to have stronger affinity for human MET than anti-MET antibody 5D5.

[6] = molecular target: T2, human Sema mutant Mut99 (Q99R; Sema-hCD4TM-GFP) on cells (human, UniProt P08581 25-515); experiment: FACS on transfected HEK-293T cells
T2 construct: not shown: human CD4 transmembrane domain and GFP (display and reporter carrier at the C end)
T2 sequence (P08581 25-515 Q99R limits assumed): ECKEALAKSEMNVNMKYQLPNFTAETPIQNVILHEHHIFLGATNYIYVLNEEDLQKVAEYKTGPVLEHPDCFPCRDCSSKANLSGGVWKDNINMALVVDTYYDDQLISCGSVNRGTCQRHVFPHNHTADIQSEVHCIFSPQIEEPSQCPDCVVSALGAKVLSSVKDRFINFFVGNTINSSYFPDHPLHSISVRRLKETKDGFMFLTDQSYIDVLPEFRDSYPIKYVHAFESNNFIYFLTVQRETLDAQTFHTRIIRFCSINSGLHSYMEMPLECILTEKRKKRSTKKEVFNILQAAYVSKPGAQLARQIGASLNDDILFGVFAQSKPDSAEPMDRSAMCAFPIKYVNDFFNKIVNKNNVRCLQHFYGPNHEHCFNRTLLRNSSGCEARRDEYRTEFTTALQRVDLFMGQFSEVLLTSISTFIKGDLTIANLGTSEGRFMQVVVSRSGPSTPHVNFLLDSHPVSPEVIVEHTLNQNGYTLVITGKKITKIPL
Method: (§2) To identify the MET epitope recognized by the anti-MET/FZD8-Fc bispecific agent, epitope mapping was performed. […] Therefore, site-directed mutagenesis was performed to create a series of human Sema mutants. Kunkel mutagenesis was used to replace specific amino acids in the human Sema sequence with the corresponding amino acids found in the mouse Sema sequence at predicted antibody-binding sites. The human Sema mutants were: Mut96,99 (F96L and Q99R), Mut96 (F96L), Mut99 (Q99R), Mut328 (Q328N), Mut331 (R331K), and Mut337,338 (L337P and N338S).
(§3) Mammalian expression plasmid vectors encoding a wild-type human Sema, a wild-type mouse Sema, a mouse/human Sema mutant wherein the 5′ end is mouse (aa 1-331) and the 3′ end is human (aa 332-515), and the human Sema mutants outlined above were generated by standard recombinant technology. These constructs comprise the transmembrane domain of a human CD4 protein and GFP (for example, Sema-hCD4TM-GFP). These expression constructs allow for expression of the Sema domain on the cell surface, as well as expression of GFP to monitor expression. […] The cells were washed and bound bispecific agents were detected with a secondary anti-human Fc antibody conjugated to allophycocyanin (APC). […] Labeled cells were analyzed by flow cytometry to measure the binding of 315B07 and 5D5/FZD8-Fc to the series of Sema mutants.

[7] = molecular target: T3, human Sema mutant Mut96,99 (F96L and Q99R; Sema-hCD4TM-GFP) on cells (human, UniProt P08581 25-515); experiment: FACS on transfected HEK-293T cells
T3 construct: not shown: human CD4 transmembrane domain and GFP (display and reporter carrier at the C end)
T3 sequence (P08581 25-515 F96L/Q99R limits assumed): as the sequence (P08581 25-515 Q99R limits assumed) above, with F72L counted along it
Method: as §2, §3

[8] = molecular target: T1, human MET (soluble analyte in the …); experiment: SPR (Biacore 2000) as described in Example 1
Method: as §1
Antibody 73R010 was used in a variation of the anti-MET/FZD8-Fc bispecific agent, and this variant bispecific agent is referred to as 315B07.

Chain of full-length human MET (FL-MET) on cells (human) (P08581 25-1390 limits assumed): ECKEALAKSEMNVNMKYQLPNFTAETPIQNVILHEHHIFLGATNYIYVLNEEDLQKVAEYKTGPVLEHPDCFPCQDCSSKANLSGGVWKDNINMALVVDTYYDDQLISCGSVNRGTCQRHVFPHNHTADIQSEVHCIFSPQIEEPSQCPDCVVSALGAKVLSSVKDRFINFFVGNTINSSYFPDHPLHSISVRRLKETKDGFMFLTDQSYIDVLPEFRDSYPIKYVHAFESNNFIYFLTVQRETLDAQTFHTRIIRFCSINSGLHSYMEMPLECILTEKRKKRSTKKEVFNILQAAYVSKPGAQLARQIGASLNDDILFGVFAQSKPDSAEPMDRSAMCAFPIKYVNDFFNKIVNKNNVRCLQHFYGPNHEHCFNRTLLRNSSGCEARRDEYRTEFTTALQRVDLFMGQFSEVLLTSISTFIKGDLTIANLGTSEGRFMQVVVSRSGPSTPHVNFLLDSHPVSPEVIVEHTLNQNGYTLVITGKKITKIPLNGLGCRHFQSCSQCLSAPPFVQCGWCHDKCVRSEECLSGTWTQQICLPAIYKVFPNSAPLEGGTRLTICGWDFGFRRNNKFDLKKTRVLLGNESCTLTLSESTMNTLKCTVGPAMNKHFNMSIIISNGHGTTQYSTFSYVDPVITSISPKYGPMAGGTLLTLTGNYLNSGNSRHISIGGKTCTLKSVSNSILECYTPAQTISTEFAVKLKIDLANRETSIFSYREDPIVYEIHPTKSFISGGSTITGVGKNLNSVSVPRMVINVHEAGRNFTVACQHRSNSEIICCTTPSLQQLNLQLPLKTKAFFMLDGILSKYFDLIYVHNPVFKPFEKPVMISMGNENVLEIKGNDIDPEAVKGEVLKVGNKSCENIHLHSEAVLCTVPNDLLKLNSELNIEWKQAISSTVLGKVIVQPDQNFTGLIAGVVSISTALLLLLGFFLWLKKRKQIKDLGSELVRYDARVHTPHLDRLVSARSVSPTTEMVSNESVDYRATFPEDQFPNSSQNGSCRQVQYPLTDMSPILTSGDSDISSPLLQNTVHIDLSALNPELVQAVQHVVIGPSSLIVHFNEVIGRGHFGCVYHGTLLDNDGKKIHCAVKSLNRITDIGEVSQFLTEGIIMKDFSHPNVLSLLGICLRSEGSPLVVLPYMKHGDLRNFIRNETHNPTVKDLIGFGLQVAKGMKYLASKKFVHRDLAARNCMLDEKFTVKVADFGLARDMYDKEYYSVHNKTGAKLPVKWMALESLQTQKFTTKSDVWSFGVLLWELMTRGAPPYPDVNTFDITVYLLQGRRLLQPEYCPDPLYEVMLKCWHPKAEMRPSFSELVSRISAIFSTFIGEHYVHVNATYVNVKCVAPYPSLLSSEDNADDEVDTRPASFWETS

percent reduction of HGF binding to MET [1]: 28%
percent reduction of HGF binding to MET [2]: 70%
% Binding of hHGF at 0.16 ug/ml antibody [3]: 14.3%
% Binding of hHGF at 0.3 ug/ml antibody [3]: 10.6%
% Binding of hHGF at 0.625 ug/ml antibody [3]: 12%
% Binding of hHGF at 1.25 ug/ml antibody [3]: 8.54%
% Binding of hHGF at 2.5 ug/ml antibody [3]: 9.61%
% Binding of hHGF at 5 ug/ml antibody [3]: 6.67%
% Binding of hHGF at 10 ug/ml antibody [3]: 6.31%
% Inhibition of hHGF binding at 0.3 ug/ml antibody [3]: 47%
% Inhibition of hHGF binding at 0.625 ug/ml antibody [3]: 40%
% Inhibition of hHGF binding at 1.25 ug/ml antibody [3]: 57%
% Inhibition of hHGF binding at 2.5 ug/ml antibody [3]: 52%
% Inhibition of hHGF binding at 5 ug/ml antibody [3]: 67%
Kd [4]: 7.2 nM
Molecule: monovalent anti-MET antibody 5D5

Kd [5]: 1.1 nM
B1: anti-MET antibody 73R009 (bivalent “parental” antibody) (antibody, human IgG2, kappa, V domains shown)
VH: QVQLQESGPGLVKPSETLSLTCTVTGTTITASYAWSWIRQPPGKGLEWMGYISYSGGTDYNPSLKSRITISRDTFKNQFSLKLSSVTAADTATYYCARKGAYWGQGTLVTVSS
VL: DIVLTQSPATLSASPGEKVTLTCSASSSVSSSYLYWYQQKPGQAPKLLIYSTSNLASGVPARFSGSGSGTSYSLTISSLEPEDFATYYCHQWSSYPYTFGGGTKLEIKR

Kd [5]: 1.4 nM
B2: monovalent version of anti-MET antibody 73R009 (antibody, V domains shown)
VH: B1 VH
VL: DIVLTQSPATLSASPGEKVTLTCSASSSVSSSYLYWYQQKPGQAPKLLIYSTSNLASGVPARFSGSGSGTSYSLTISSLEPEDFATYYCHQWSSYPYTFGGGTKLEIK
notes: Only the 73R009 variable regions can be tied to this molecule; also called monovalent anti-MET antibody 73R009; monovalent version of 73R009

Kd [5]: 1.8 nM
B3: anti-MET/FZD8-Fc bispecific agent 315B06 (bispecific antibody, human IgG2, kappa)
heavy: QVQLQESGPGLVKPSETLSLTCTVTGTTITASYAWSWIRQPPGKGLEWMGYISYSGGTDYNPSLKSRITISRDTFKNQFSLKLSSVTAADTATYYCARKGAYWGQGTLVTVSSASTKGPSVFPLAPCSRSTSESTAALGCLVKDYFPEPVTVSWNSGALTSGVHTFPAVLQSSGLYSLSSVVTVPSSNFGTQTYTCNVDHKPSNTKVDKTVERKCCVECPPCPAPPVAGPSVFLFPPKPKDTLMISRTPEVTCVVVDVSHEDPEVQFNWYVDGVEVHNAKTKPREEQFNSTFRVVSVLTVVHQDWLNGKEYKCKVSNKGLPAPIEKTISKTKGQPREPQVYTLPPSREKMTKNQVSLTCLVKGFYPSDIAVEWESNGQPENNYKTTPPMLKSDGSFFLYSKLTVDKSRWQQGNVFSCSVMHEALHNHYTQKSLSLSPGK
light: DIVLTQSPATLSASPGEKVTLTCSASSSVSSSYLYWYQQKPGQAPKLLIYSTSNLASGVPARFSGSGSGTSYSLTISSLEPEDFATYYCHQWSSYPYTFGGGTKLEIKRTVAAPSVFIFPPSDEQLKSGTASVVCLLNNFYPREAKVQWKVDNALQSGNSQESVTEQDSKDSTYSLSSTLTLSKADYEKHKVYACEVTHQGLSSPVTKSFNRGEC
chain: ASAKELACQEITVPLCKGIGYNYTYMPNQFNHDTQDEAGLEVHQFWPLVEIQCSPDLKFFLCSMYTPICLEDYKKPLPPCRSVCERAKAGCAPLMRQYGFAWPDRMRCDRLPEQGNPDTLCMDYNRTDLTTTKVDKTVERKSCVECPPCPAPPVAGPSVFLFPPKPKDTLMISRTPEVTCVVVDVSHEDPEVQFNWYVDGVEVHNAKTKPREEQFNSTFRVVSVLTVVHQDWLNGKEYKCKVSNKGLPAPIEKTISKTKGQPREPQVYTLPPSREEMTKNQVSLTCLVEGFYPSDIAVEWESNGQPENNYKTTPPMLDSDGSFFLYSELTVDKSRWQQGNVFSCSVMHEALHNHYTQKSLSLSPGK
notes: Heterodimer with one anti-MET arm (heavy and light chain) and one FZD8-Fc soluble receptor arm; also called bispecific anti-MET/FZD8-Fc agent 315B06; 351B06 [sic]

binding result [6]: no binding
binding result [7]: no binding
Kd [8]: 0.126 nM
B4: anti-MET/FZD8-Fc bispecific agent 315B07 (bispecific antibody, human IgG2, kappa)
heavy: B3 heavy with T25S, I68V, T93V
light: EIVLTQSPATLSLSPGERATLSCSASSSVSSSYLYWYQQKPGQAPRLLIYSTSNLASGIPARFSGSGSGTDFTLTISRLEPEDFAVYYCHQWSSYPYTFGQGTKLEIKRTVAAPSVFIFPPSDEQLKSGTASVVCLLNNFYPREAKVQWKVDNALQSGNSQESVTEQDSKDSTYSLSSTLTLSKADYEKHKVYACEVTHQGLSSPVTKSFNRGEC
chain: B3 chain
notes: Heterodimer with one humanized anti-MET arm (73R010) and one FZD8-Fc soluble receptor arm; also called OMP-315B07; 3151307 [sic]
